Consider three molecules from article PMC4698195 (Carbohydrate research, 2015).

A word on the Ki: it is the equilibrium dissociation constant of an inhibitor or competing ligand from its target. The low end stands for tighter binding, the high end for weaker binding. For orientation: Km means the concentration of substrate that gives half-maximal velocity. Broadly, the kcat is the maximal rate divided by the concentration of active sites. What is called kcat/Km is the turnover number divided by the Michaelis constant.

Data set [1] deals with UDP-N-acetylglucosamine (UDP-GlcNAc) 2-epimerase (NmSacA) (Neisseria meningitidis, UniProt A0A0U1RGY0). It counts as biochemical.
In data set [2] the test system is CCC(=O)N[C@@H]1[C@@H](OP(=O)(O)OP(=O)(O)OC[C@H]2O[C@@H](n3ccc(=O)[nH]c3=O)[C@H](O)[C@@H]2O)O[C@H](CO)[C@@H](O)[C@@H]1O. Kind of data set: purified protein.
Data set [3] deals with CC(=O)N[C@@H]1[C@@H](OP(=O)(O)OP(=O)(O)OC[C@H]2O[C@@H](N3CCC(=O)NC3=O)[C@H](O)[C@@H]2O)O[C@H](CO)[C@@H](O)[C@@H]1O. Kind of data set: purified protein.
For data set [4], the system named is O=C(CO)N[C@@H]1[C@@H](OP(=O)(O)OP(=O)(O)OC[C@H]2O[C@@H](n3ccc(=O)[nH]c3=O)[C@H](O)[C@@H]2O)O[C@H](CO)[C@@H](O)[C@@H]1O. Kind of data set: purified protein.
The test system of data set [5] is CC(=O)N[C@H]1[C@@H](OP(=O)(O)OP(=O)(O)OC[C@H]2O[C@@H](n3ccc(=O)[nH]c3=O)[C@H](O)[C@@H]2O)O[C@H](CO)[C@@H](O)[C@@H]1O. The data set can be described thus: purified protein.
Data set [6] deals with CC(=O)N[C@@H]1[C@@H](OP(=O)(O)OP(=O)(O)OC[C@H]2O[C@@H](n3ccc(=O)[nH]c3=O)[C@H](O)[C@@H]2O)O[C@H](CO)[C@@H](O)[C@@H]1O. The data set can be described thus: purified protein.

Sequence of UDP-N-acetylglucosamine (UDP-GlcNAc) 2-epimerase (NmSacA) (A0A0U1RGY0 whole entry): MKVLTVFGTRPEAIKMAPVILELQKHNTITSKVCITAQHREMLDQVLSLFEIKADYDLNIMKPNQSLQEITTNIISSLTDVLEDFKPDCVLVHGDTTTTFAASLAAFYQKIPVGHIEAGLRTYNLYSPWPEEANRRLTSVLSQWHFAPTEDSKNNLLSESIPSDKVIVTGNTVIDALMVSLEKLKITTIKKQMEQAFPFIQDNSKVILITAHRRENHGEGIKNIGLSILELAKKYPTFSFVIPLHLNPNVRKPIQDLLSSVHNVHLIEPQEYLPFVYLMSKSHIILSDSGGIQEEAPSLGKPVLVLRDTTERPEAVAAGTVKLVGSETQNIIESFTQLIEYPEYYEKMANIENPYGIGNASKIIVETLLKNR

The molecule `O=c1ccn([C@@H]2O[C@H](COP(=O)(O)OP(=O)(O)O)[C@@H](O)[C@H]2O)c(=O)[nH]1` [UDP] had a Ki in data set [1] of 0.8 mM.

As to `CC(=O)NC1=CO[C@H](CO)[C@@H](O)[C@@H]1O` [D, 2-acetamidoglucal], affinity in data set [1] was put at a Ki of 14 mM.

“UDP-N-acetylglucosamine (UDP-GlcNAc) 2-epimerase (NmSacA) (Neisseria meningitidis Z2491)”: the Km is given as 51 ± 5.0 mM in data set [2]; 63 ± 7.0 mM in data set [3]; 20 ± 1.9 mM in data set [4]; 3.6 ± 0.5 mM in data set [5]; 5.2 ± 1.1 mM in data set [6]. In addition, the kcat in data set [2] amounted to 7.8 ± 0.3 s⁻¹; in data set [3] it was 6.7 ± 0.5 s⁻¹; in data set [4], 4.2 ± 0.2 s⁻¹; in data set [5], 31 ± 2 s⁻¹; in data set [6], 52 ± 5 s⁻¹. Besides, the kcat/Km worked out at 150 M⁻¹ s⁻¹ in data set [2]; 110 M⁻¹ s⁻¹ in data set [3]; 210 M⁻¹ s⁻¹ in data set [4]; 8600 M⁻¹ s⁻¹ in data set [5]; 10000 M⁻¹ s⁻¹ in data set [6].
